Test results from patent US12072338B2, “Pharmaceutical peptides for the treatment of inflammatory diseases” (PROTAGONISTS LTD., priority 2007, dated 2024).

What was measured:
TECK = molecular target: T1, TECK (Homo sapiens, UniProt O15444); experiment: Micro-array analysis of chemokine binding peptides: TECK
T1 construct: purchased 300-45
T1 sequence (O15444 24-150): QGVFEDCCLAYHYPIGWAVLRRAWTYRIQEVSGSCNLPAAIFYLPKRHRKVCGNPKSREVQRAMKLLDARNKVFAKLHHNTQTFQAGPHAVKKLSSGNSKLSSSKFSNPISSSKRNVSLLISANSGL
Description: (§1) (1) Printing: Chemokine (CK) solution (in water) was serially diluted with Print Reagent (GenTel BioSurfaces USA) to final concentrations of 50 μg and 25 μg/ml. BSA/BSA-Biotin control solutions (in water) were diluted with Print Reagent to 100 μg/ml. Amplified stock of M13 phage control (M13KEgIII Cloning Vector, New England Biolabs, Cat.No.E8101S) was stored in Tris Buffered Saline (TBS; pH7.5, 4° C.) and diluted with Print Reagent to the working titre (10^8 pfu/μl). An automated spotting robot (16 pin print tool, 0.4 mm head; BioRobotics, UK) was used to print the CK/BSA control/M13 control, 5 repeats per sample (CK 25 μg/ml and 50 μg/ml; BSA 100 μg/ml; M13 20 μl), on PATH Protein Microarray Slides (GenTel, Prod.No. 2-1005/-1025) at […], and 50-70% relative humidity. Printed micro-array slides were stored at Room Temperature (RT) or 4° C. for at least 24 h before use.
(§2) (2) Blocking: Block Buffer (500 μl/partition; PATHblock, GenTel, Prod.No. 2-1014) was applied to the slide for 1 hour at room temp (RT). After removal of Block Buffer, the slide was air dried for 25 minutes;
(§3) (3) Phage Presented Peptide Binding: Amplified recombinant phage stock was stored in TBS and diluted with Wash Buffer to working titer (10^7 pfu/μl). Recombinant phage suspension (300 μl) was applied per partition and incubated at RT for 1 hour with gentle agitation.
(§4) (4) First Washing: The slides were washed twice with Wash Buffer 300 μl/partition).
(§5) (5) Primary Antibody (Ab) Labeling: The slides were incubated with the Primary Ab (1 mg/ml diluted ×2500 (Wash Reagent), 300 μl; Mouse Anti-M13 monoclonal Ab; Amersham Biosciences, UK; Product Code 27-9420-01) for 45 minutes at RT.
(§6) (6) Second Washing: The slides were washed twice with Wash Buffer (300 μl/partition).
(§7) (7) Secondary Ab Labeling: The slides were incubated with Secondary Ab (1.5 mg/ml diluted ×5000 (Wash Reagent), 300 μl; Cy3-conjugated AffiniPure Goat Anti-Mouse IgG; Jackson ImmunoReserch Labs, USA; Product Code 115-165-062).
(§8) (8) Third Washing: The slides were washed twice with Wash Buffer (300 μl/partition).
(§9) (9) Rinse: the slides were rinsed twice with Rinse Buffer (PATHrinse, GenTel, Prod.No. 2-1018) then dried well.
(§10) (10) Scanning: The peptide-bound, labeled slide was scanned (Laser Intensity 80%, Gain 80%, Resolution 10 μm) with a ScanArray Life Scanner (Packard BioChip Technologies, USA).
(§11) (11) Analysis: Quantitative analysis of micro-array was performed by the SpotReader program of Niles Scientific (USA) and presented as Relative Fluorescence (RF) as a function of CK concentration. Micro-array readout (Cy3 fluorescence) was quantified to determine the relative binding affinities of a CBP for the CKs and by inference, the specificity of the CBP for binding to a CK.

Eotaxin 3 = molecular target: T2, Eotaxin 3 (Homo sapiens, UniProt Q9Y258); experiment: Micro-array analysis of chemokine binding peptides: Eotaxin 3; conditions: for binding to Eotaxin 3 with relatively high affinity (Relative Fluorescence Units): limit = start of the upper 75% of that peptide's response range
T2 construct: purchased 300-48
T2 sequence (Q9Y258 24-94): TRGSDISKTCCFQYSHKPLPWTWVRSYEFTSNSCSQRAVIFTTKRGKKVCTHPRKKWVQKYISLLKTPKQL
Description: as §1, §2, §3, §4, §5, §6, §7, §8, §9, §10, §11

BCA-1 = molecular target: T3, BCA-1 (Homo sapiens, UniProt O43927); experiment: Micro-array analysis of chemokine binding peptides: BCA-1
T3 construct: purchased 300-47
T3 sequence (O43927 23-109): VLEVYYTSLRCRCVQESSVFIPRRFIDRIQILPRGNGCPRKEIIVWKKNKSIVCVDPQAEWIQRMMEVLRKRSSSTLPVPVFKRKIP
Description: as §1, §2, §3, §4, §5, §6, §7, §8, §9, §10, §11

Lymphotactin = molecular target: T4, Lymphotactin (Homo sapiens, UniProt P47992); experiment: Micro-array analysis of chemokine binding peptides: Lymphotactin
T4 construct: purchased 300-20
T4 sequence (P47992 22-114): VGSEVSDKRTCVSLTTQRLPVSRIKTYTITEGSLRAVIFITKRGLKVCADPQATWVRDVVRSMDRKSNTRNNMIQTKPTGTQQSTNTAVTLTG
Description: as §1, §2, §3, §4, §5, §6, §7, §8, §9, §10, §11

MCP-4 = molecular target: T5, MCP-4 (Homo sapiens, UniProt Q99616); experiment: Micro-array analysis of chemokine binding peptides: MCP-4; conditions: limit = start of the upper 75% of that peptide's response range
T5 construct: purchased 300-24
T5 sequence (Q99616 17-98): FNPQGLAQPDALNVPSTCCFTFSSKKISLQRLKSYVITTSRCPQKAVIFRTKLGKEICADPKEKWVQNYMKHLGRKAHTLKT
Description: as §1, §2, §3, §4, §5, §6, §7, §8, §9, §10, §11

Fractalkine = molecular target: T6, Fractalkine (Homo sapiens, UniProt P78423); experiment: Micro-array analysis of chemokine binding peptides: Fractalkine
T6 construct: purchased 300-31
T6 sequence (P78423 25-100 limits assumed): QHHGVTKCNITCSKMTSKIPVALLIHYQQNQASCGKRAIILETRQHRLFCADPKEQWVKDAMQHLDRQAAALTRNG
Description: as §1, §2, §3, §4, §5, §6, §7, §8, §9, §10, §11

IL-8 = experiment: Micro-array analysis of chemokine binding peptides: IL-8; conditions: limit = start of the upper 75% of that peptide's response range
IL-8, sequence (P10145 28-99 limits assumed): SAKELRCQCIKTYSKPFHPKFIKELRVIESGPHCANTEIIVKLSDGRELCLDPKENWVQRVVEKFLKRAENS
Description: as §1, §2, §3, §4, §5, §6, §7, §8, §9, §10, §11

Mig = molecular target: T7, Mig (Homo sapiens, UniProt Q07325); experiment: Micro-array analysis of chemokine binding peptides: Mig
T7 construct: purchased 300-26
T7 sequence (Q07325 23-125): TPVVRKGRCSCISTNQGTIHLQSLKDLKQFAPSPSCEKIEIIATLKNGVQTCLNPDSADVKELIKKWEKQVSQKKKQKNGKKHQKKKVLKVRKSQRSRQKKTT
Description: as §1, §2, §3, §4, §5, §6, §7, §8, §9, §10, §11

RANTES = molecular target: T8, RANTES (Homo sapiens, UniProt P13501); experiment: Micro-array analysis of chemokine binding peptides: RANTES; conditions: limit = start of the upper 75% of that peptide's response range
T8 construct: purchased 300-06
T8 sequence (P13501 24-91): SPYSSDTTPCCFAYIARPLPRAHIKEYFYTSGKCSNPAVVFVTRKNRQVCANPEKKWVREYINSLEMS
Description: as §1, §2, §3, §4, §5, §6, §7, §8, §9, §10, §11

IP-10 = molecular target: T9, IP-10 (Homo sapiens, UniProt P02778); experiment: Micro-array analysis of chemokine binding peptides: IP-10
T9 construct: purchased 300-12
T9 sequence (P02778 22-98): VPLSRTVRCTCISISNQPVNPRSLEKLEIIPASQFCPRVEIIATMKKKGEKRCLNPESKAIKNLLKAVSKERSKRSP
Description: as §1, §2, §3, §4, §5, §6, §7, §8, §9, §10, §11

Exodus-2 = molecular target: T10, Exodus-2 (Homo sapiens, UniProt O00585); experiment: Micro-array analysis of chemokine binding peptides: Exodus-2
T10 construct: purchased 300-35
T10 sequence (O00585 24-134): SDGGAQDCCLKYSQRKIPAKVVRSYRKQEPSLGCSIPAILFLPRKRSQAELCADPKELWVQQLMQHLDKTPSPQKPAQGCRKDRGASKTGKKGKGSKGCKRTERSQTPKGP
Description: as §1, §2, §3, §4, §5, §6, §7, §8, §9, §10, §11

MCP-2 = molecular target: T11, MCP-2 (Homo sapiens, UniProt P80075); experiment: Micro-array analysis of chemokine binding peptides: MCP-2; conditions: limit = start of the upper 75% of that peptide's response range
T11 construct: purchased 300-15
T11 sequence (P80075 24-99): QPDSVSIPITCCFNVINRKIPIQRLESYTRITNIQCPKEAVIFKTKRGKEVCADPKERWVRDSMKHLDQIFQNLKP
Description: as §1, §2, §3, §4, §5, §6, §7, §8, §9, §10, §11

SDF1-β = molecular target: T12, SDF1-β (Homo sapiens, UniProt P48061); experiment: Micro-array analysis of chemokine binding peptides: SDF1-β
T12 construct: purchased 300-28b
T12 sequence (P48061 22-93): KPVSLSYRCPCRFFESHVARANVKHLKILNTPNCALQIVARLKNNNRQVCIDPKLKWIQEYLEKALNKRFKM
Description: as §1, §2, §3, §4, §5, §6, §7, §8, §9, §10, §11

Eotaxin = molecular target: T13, Eotaxin (Homo sapiens, UniProt P51671); experiment: Micro-array analysis of chemokine binding peptides: Eotaxin
T13 construct: purchased 300-21
T13 sequence (P51671 24-97): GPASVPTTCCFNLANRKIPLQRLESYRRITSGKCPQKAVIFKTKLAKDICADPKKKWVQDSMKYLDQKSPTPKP
Description: as §1, §2, §3, §4, §5, §6, §7, §8, §9, §10, §11

I-309 = molecular target: T14, I-309 (Homo sapiens, UniProt P22362); experiment: Micro-array analysis of chemokine binding peptides: I-309
T14 construct: purchased 300-37
T14 sequence (P22362 24-96): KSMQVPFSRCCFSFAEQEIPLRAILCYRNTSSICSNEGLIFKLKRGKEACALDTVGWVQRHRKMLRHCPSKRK
Description: as §1, §2, §3, §4, §5, §6, §7, §8, §9, §10, §11

I-TAC = molecular target: T15, I-TAC (Homo sapiens, UniProt O14625); experiment: Micro-array analysis of chemokine binding peptides: I-TAC
T15 construct: purchased 300-46
T15 sequence (O14625 22-94): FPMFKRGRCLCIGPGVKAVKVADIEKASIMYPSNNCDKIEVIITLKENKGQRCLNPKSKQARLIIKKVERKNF
Description: as §1, §2, §3, §4, §5, §6, §7, §8, §9, §10, §11

[1] = limit = start of the upper 75% of that peptide's response range

With “GNAMCK (listed as Homo sapiens) [Ph-p8.1]” the “binding to TECK with relatively high affinity (Relative Fluorescence Units)” value (TECK; [1]) was > 15,000 RFU, the “binding to Eotaxin 3 with relatively high affinity (Relative Fluorescence Units)” value (Eotaxin 3) was > 15,000 RFU and the “binding to BCA-1 with relatively high affinity (Relative Fluorescence Units)” value (BCA-1; [1]) was > 15,000 RFU. The “binding to Lymphotactin with relatively high affinity (Relative Fluorescence Units)” value (Lymphotactin; [1]) was > 15,000 RFU.

DYD [Ph-p33] was tested, and the “binding to TECK, stated in words” value (TECK) was “bound”, the “binding to MCP-4 with relatively high affinity (Relative Fluorescence Units)” value (MCP-4) was > 15,000 RFU and the “binding to Eotaxin 3 with relatively high affinity (Relative Fluorescence Units)” value (Eotaxin 3) was > 15,000 RFU. For the same substance, the “binding to Fractalkine, stated in words” value (Fractalkine) was “bound”, the “binding to BCA-1, stated in words” value (BCA-1) was “bound” and the “binding to IL-8 with relatively high affinity (Relative Fluorescence Units)” value (IL-8) was > 15,000 RFU. The “binding to Mig with relatively high affinity (Relative Fluorescence Units)” value (Mig; [1]) was > 15,000 RFU, the “binding to RANTES with relatively high affinity (Relative Fluorescence Units)” value (RANTES) was > 15,000 RFU and the “binding to IP-10 with relatively high affinity (Relative Fluorescence Units)” value (IP-10; [1]) was > 15,000 RFU. The “binding to Exodus-2, stated in words” value (Exodus-2) was “bound”, the “binding to Lymphotactin, stated in words” value (Lymphotactin) was “bound” and the “binding to MCP-2 with relatively high affinity (Relative Fluorescence Units)” value (MCP-2) was > 15,000 RFU. For the same substance, the “binding to SDF1-β, stated in words” value (SDF1-β) was “bound”.

For WVFGNAACK [Ph-p8.7], the “binding to Eotaxin, stated in words” value (Eotaxin) was “bound”, the “binding to TECK, stated in words” value (TECK) was “bound” and the “binding to MCP-4 with relatively high affinity (Relative Fluorescence Units)” value (MCP-4) was > 15,000 RFU. The “binding to I-309, stated in words” value (I-309) was “bound”, the “binding to Eotaxin 3, stated in words” value (Eotaxin 3) was “bound” and the “binding to BCA-1, stated in words” value (BCA-1) was “bound”. For the same substance, the “binding to Mig, stated in words” value (Mig) was “bound”, the “binding to I-TAC, stated in words” value (I-TAC) was “bound” and the “binding to IP-10, stated in words” value (IP-10) was “bound”. The “binding to Lymphotactin, stated in words” value (Lymphotactin) was “bound”, the “binding to MCP-2 with relatively high affinity (Relative Fluorescence Units)” value (MCP-2) was > 15,000 RFU and the “binding to SDF1-β, stated in words” value (SDF1-β) was “bound”.
